Key:
cell surface CD200 [1] = molecular target: T1, cell surface CD200 (human, UniProt P41217 31-278); assay: whole-blood CD200 receptor occupancy by flow cytometry, T cells (CD3+); unlabelled antibody incubated overnight, free CD200 against total CD200 (1B2-AF647)
T1 construct: whole, on cells; also called CD200 on CD200 expressing Raji cells; CD200+ Raji cells
T1 sequence (looked up): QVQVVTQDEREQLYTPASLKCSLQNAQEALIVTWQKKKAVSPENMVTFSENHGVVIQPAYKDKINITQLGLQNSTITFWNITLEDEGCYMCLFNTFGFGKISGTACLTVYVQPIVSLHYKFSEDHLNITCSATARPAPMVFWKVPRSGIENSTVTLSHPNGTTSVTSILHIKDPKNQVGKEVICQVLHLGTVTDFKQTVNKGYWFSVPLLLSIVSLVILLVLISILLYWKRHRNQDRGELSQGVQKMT
Experimental: (§1) Whole blood (including sodium heparin as anticoagulant) was added at 250 μL/FACs tube and sealed. Tubes were incubated at 25° C. in a temperature-controlled cabinet overnight to allow therapeutic antibody binding.
(§2) FACS Antibody Staining: Cells were blocked with Fc blocking reagent for 30 min. Red blood cells were lysed with hemolytic buffer; remaining cells were spun 800×g for 5 minutes, and the resulting cell pellet was washed twice with PBS. After final wash, cell pellets were resuspended into 200 μL PBS. Cells were stained with a fixable Live/Dead dye for 20 minutes protected from light, and then neutralized and washed with FACS buffer. After the final wash the cells were resuspended in 100 μL wash with FcR block. Labeled antibody cocktail mixes were prepared CD3-PE/CD19-FITC/Alexa-647 or CD3-PE/CD19-FITC/1B2-647 in blocking buffer as well as appropriate controls (single color and FMO). The appropriate amount of antibody was added and incubated with cells protected from light for 30 minutes at room temperature. […]
(§3) FACS Analysis: Data was acquired on an automated cell analyzer (BD Fortessa) by gating on lymphocytes, and single live cells followed by B cell (CD19+-FITC) and T cells (CD3-PE) populations. […] Percent receptor occupancy was calculated from the MFI (median fluorescence intensity) according to the following formula: […]

cell surface CD200 [2] = molecular target: T1, cell surface CD200; assay: flow cytometry, inhibition of labelled CD200R-Fc binding to CD200+ Raji cells; n = 1
Excerpt: Next, the abilities of the newly-engineered anti-CD200 antibodies to antagonize CD200R were compared with that of samalizumab using CD200+ Raji cells. […] Binding of labeled CD200R-Fc was detected by flow cytometry.

cell surface CD200 [3] = molecular target: T1, cell surface CD200; assay: whole-blood CD200 receptor occupancy by flow cytometry, B cells (CD19+); unlabelled antibody incubated overnight, free CD200 against total CD200 (1B2-AF647)
Experimental: as §1, §2, §3

B1: TPP-1143 (antibody, human IgG2, kappa, V domains shown)
VH: QVQLVQSGAEVKKPGASVKVSCKASGYSFTDYIILWVRQAPGQRLEWMGHIDPYYGSSNYNLKFKGRVTITRDTSASTAYMELSSLRSEDTAVYYCGRSKRDYFDYWGQGTLVTVSS
VL: DIQMTQSPSSLSASVGDRVTITCKASQDINSYLSWFQQKPGKAPKSLIYRANRLVDGVPSRFSGSGSGTDFTLTISSLQPEDFGTYYCLQYDEFPYTFGQGTKLEIKR
notes: mAb with human G2G4 Fc (effectorless); also called TPP-11143 (as printed once)
Question: For B1, which “EC50 (read off the curve)” value (cell surface CD200 [1]) is on record?
Answer: The value was ~4 ng/mL.

Question: And the EC50 (cell surface CD200 [2])?
Answer: The EC50 was 0.186 nM.

Question: What about the “EC50 (read off the curve)” value (cell surface CD200 [3]) of the same binder?
Answer: The value was ~4 ng/mL.

From US20210230273A1 (Alexion, published 2021)
